Test results as given in patent US20190211081A1 (Chugai, published 2019).

Experiments:
[1] = target: T1, soluble human FcRn (complex of FcRn and beta2-microglobulin) (human, UniProt P55899 24-290; P61769 21-119); experiment: Biacore 3000, antibody captured, human FcRn as analyte, pH 6.0, steady state affinity
T1 construct: Expressed constructs contain the signal regions (FcRn Met1-Leu290; beta2-microglobulin Met1-Met119); Secreted from HEK293H cells and purified; also called hFcRn
Description: (§1) The binding to human FcRn was assessed using Biacore 3000. An antibody was bound to Protein L or rabbit anti-human IgG Kappa chain antibody immobilized onto a sensor chip, human FcRn was added as an analyte for interaction with the antibody, and the affinity (KD) was calculated from the amount of bound human FcRn. Specifically, Protein L or rabbit anti-human IgG Kappa chain antibody was immobilized onto sensor chip CM5 (BIACORE) by the amine coupling method using 50 mM Na-phosphate buffer (pH 6.0) containing 150 mM NaCl as the running buffer. […] Human FcRn was then injected and the binding of the human FcRn to antibody was assessed.
The affinity was computed using BIAevaluation Software. The obtained sensorgram was used to calculate the amount of hFcRn bound to the antibody immediately before the end of human FcRn injection. The affinity of the antibody for human FcRn was calculated by fitting with the steady state affinity method.
The resulting antibodies were assessed for their human FcRn-binding activity by the method described above.

[2] = target: T1, soluble human FcRn (complex of FcRn and …); experiment: Biacore T100, human FcRn immobilized on CM4 chip, antibody as analyte (divalent avidity), pH 6.0, 25 C, KD from ka and kd
Description: Then, the present inventors assessed in this Example the binding of IgG to FcRn with divalent avidity by immobilizing human FcRn onto a sensor chip and injecting IgG as an analyte to more closely mimic the in vivo case.
First, about 2,000 RU of human FcRn was immobilized onto sensor chip CM4 (GE Healthcare) by the amino coupling method. Reagents used in the amino coupling were: ethanol amine (GE Healthcare), 50 mM NaOH solution (GE Healthcare), NHS (GE Healthcare), EDC (GE Healthcare). HBS-EP+ solution (10×HBS-EP+ solution (GE Healthcare) was used after dilution) was used as the mobile phase. Then, antibodies were each injected as an analyte into the sensor chip immobilized with human FcRn for three minutes to observe the binding of FcRn to the antibodies. After this observation, the mobile phase was injected for five minutes to assess the dissociation of each antibody variants from FcRn. All measurements were carried out at 25° C. The mobile phase used was 10 mM Cit (pH 6.0)/150 mM NaCl/0.05% Tween20.
From the obtained sensorgrams, the association rate constant ka (1/Ms) and dissociation rate constant kd (1/s) were calculated for the three minutes of binding phase using Biacore T100 Evaluation Software (GE Healthcare). The dissociation constant KD (M) was determined based on these values.

[3] = target: T1, soluble human FcRn (complex of FcRn and …); experiment: Biacore 3000, antibody captured on Protein L or rabbit anti-human kappa antibody, human FcRn as analyte, pH 6.0, steady state affinity
Description: as §1
(§2) The obtained sensorgram was used to calculate the amount of hFcRn bound to the antibody immediately before the end of human FcRn injection. The affinity of the antibody for human FcRn was calculated by fitting with the steady state affinity method.

[4] = target: T1, soluble human FcRn (complex of FcRn and …); experiment: Biacore 3000, antibody captured, human FcRn as analyte, pH 6.0
Description: as §1, §2

T1 sequence (P55899 24-290 limits assumed, chain 1 of 2): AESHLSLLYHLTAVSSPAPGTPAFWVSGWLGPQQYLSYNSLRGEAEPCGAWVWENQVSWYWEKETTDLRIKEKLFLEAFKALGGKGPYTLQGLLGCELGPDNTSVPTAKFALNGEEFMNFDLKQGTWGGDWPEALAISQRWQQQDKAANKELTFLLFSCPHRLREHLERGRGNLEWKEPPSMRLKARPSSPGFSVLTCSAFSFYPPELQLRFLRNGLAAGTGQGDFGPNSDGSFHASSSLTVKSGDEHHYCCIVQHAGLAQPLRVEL
T1 sequence (P61769 21-119 limits assumed, chain 2 of 2): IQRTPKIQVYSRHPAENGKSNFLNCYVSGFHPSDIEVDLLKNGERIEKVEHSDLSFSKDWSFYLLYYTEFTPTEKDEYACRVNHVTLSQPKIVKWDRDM

Row | Binder | Kd [1] [nM] | Kd [2] [nM] | Kd [3] [nM] | fold increase of binding compared to IL6R H0-IgG1/L0-k0 [4] [times]
1 | IL31R H0-IgG1/L0-k0 (antibody, also called anti-IL-31 receptor antibody, IgG1-k0) heavy: not shown light: DIQMTQSPSSLSASVGDRVTITCRTSENIYSFLAWYQQKPGKAPKLLIYNAKTLAKGVPSRFSGSGSGTDFTLTISSLQPEDFATYYCQHHYESPLTFGGGTKVEIKRTVAAPSVFIFPPSDEQLKSGTASVVCLLNNFYPREAKVQWKVDNALQSGNSQESVTEQDSKDSTYSLSSTLTLSKADYEKHKVYACEVTHQGLSSPVTKSFNRGEC | 1070 |  |  | 
2 | IL31R H0-M58/L0-k0 (antibody, also called anti-IL-31 receptor antibody, M58-k0) heavy: QVQLVQSGAEVKKPGASVKVSCKASGYTFTGYIMNWVRQAPGQGLEWMGLINPYNGGTSYNQKFKGRVTITADESTSTAYMELSSLRSEDTAVYYCARDGYDDGPYTMDYWGQGTLVTVSSASTKGPSVFPLAPSSKSTSGGTAALGCLVKDYFPEPVTVSWNSGALTSGVHTFPAVLQSSGLYSLSSVVTVPSSNFGTQTYTCNVDHKPSNTKVDKTVERKSCVECPPCPAPPVAGPSVFLFPPKPKDTLMISRTPEVTCVVVDVSQEDPEVQFNWYVDGVEVHNAKTKPREEQFNSTFRVVSVLTVVHQDWLNGKEYKCKVSNKGLPAPIEKTISKTKGQPREPQVYTLPPSQEEMTKNQVSLTCLVKGFYPSDIAVEWESNGQPENNYKTTPPMLDSDGSFFLYSKLTVDKSRWQEGNVFSCSVMHEALHNHYTQKSLSLSP light: DIQMTQSPSSLSASVGDRVTITCRTSENIYSFLAWYQQKPGKAPKLLIYNAKTLAKGVPSRFSGSGSGTDFTLTISSLQPEDFATYYCQHHYESPLTFGGGTKVEIKRTVAAPSVFIFPPSDEQLKSGTASVVCLLNNFYPREAKVQWKVDNALQSGNSQESVTEQDSKDSTYSLSSTLTLSKADYEKHKVYACEVTHQGLSSPVTKSFNRGEC | 910 |  |  | 
3 | IL6R H0-M58/L0-k0 (antibody, IgG2, L-chain constant region k0; also called M58-k0 (anti-IL-6 receptor antibody)) heavy: QVQLQESGPGLVRPSQTLSLTCTVSGYSITSDHAWSWVRQPPGRGLEWIGYISYSGITTYNPSLKSRVTMLRDTSKNQFSLRLSSVTAADTAVYYCARSLARTTAMDYWGQGSLVTVSSASTKGPSVFPLAPSSKSTSGGTAALGCLVKDYFPEPVTVSWNSGALTSGVHTFPAVLQSSGLYSLSSVVTVPSSNFGTQTYTCNVDHKPSNTKVDKTVERKSCVECPPCPAPPVAGPSVFLFPPKPKDTLMISRTPEVTCVVVDVSQEDPEVQFNWYVDGVEVHNAKTKPREEQFNSTFRVVSVLTVVHQDWLNGKEYKCKVSNKGLPAPIEKTISKTKGQPREPQVYTLPPSQEEMTKNQVSLTCLVKGFYPSDIAVEWESNGQPENNYKTTPPMLDSDGSFFLYSKLTVDKSRWQEGNVFSCSVMHEALHNHYTQKSLSLSP light: not shown | 1030 | 3.85 | 1030 | ~1.4
4 | IL6R H0-M66/L0-k3 (antibody, also called M66-k3) heavy: QVQLQESGPGLVRPSQTLSLTCTVSGYSITSDHAWSWVRQPPGRGLEWIGYISYSGITTYNPSLKSRVTMLRDTSKNQFSLRLSSVTAADTAVYYCARSLARTTAMDYWGQGSLVTVSSASTKGPSVFPLAPSSKSTSGGTAALGCLVKDYFPEPVTVSWNSGALTSGVHTFPAVLQSSGLYSLSSVVTVPSSNFGTQTYTCNVDHKPSNTKVDKTVERKCSVECPPCPAPPVAGPSVFLFPPKPKDTLMISRTPEVTCVVVDVSQEDPEVQFNWYVDGVEVHNAKTKPREEQFNSTFRVVSVLTVVHQDWLNGKEYKCKVSNKGLPAPIEKTISKTKGQPREPQVYTLPPSQEEMTKNQVSLTCLVKGFYPSDIAVEWESNGQPENNYKTTPPMLDSDGSFFLYSKLTVDKSRWQEGNVFSCSVMHEALHNHYTQKSLSLSP light: not shown |  | 3.26 |  | 
5 | IL6R H0-M66/L0-k0 (antibody, L-chain constant region k0; also called M66-k0) heavy: QVQLQESGPGLVRPSQTLSLTCTVSGYSITSDHAWSWVRQPPGRGLEWIGYISYSGITTYNPSLKSRVTMLRDTSKNQFSLRLSSVTAADTAVYYCARSLARTTAMDYWGQGSLVTVSSASTKGPSVFPLAPSSKSTSGGTAALGCLVKDYFPEPVTVSWNSGALTSGVHTFPAVLQSSGLYSLSSVVTVPSSNFGTQTYTCNVDHKPSNTKVDKTVERKCSVECPPCPAPPVAGPSVFLFPPKPKDTLMISRTPEVTCVVVDVSQEDPEVQFNWYVDGVEVHNAKTKPREEQFNSTFRVVSVLTVVHQDWLNGKEYKCKVSNKGLPAPIEKTISKTKGQPREPQVYTLPPSQEEMTKNQVSLTCLVKGFYPSDIAVEWESNGQPENNYKTTPPMLDSDGSFFLYSKLTVDKSRWQEGNVFSCSVMHEALHNHYTQKSLSLSP light: not shown |  | 3.54 |  | 
